Substrate in data set [1]: C[C@@H](N)C(=O)O
The experiment in a line: alanine racemase photometric assay. It is filed as biochemical, Streptococcus pneumoniae. The conditions noted are these: 23°C, D- to L-alanine direction.

Substrate in data set [2]: C[C@H](N)C(=O)O
The experiment in a line: alanine racemase photometric assay. The format is biochemical, Streptococcus pneumoniae. The conditions noted are these: 23°C, L- to D-alanine direction.

B1: AlrSP (alanine racemase from S. pneumoniae) (Streptococcus pneumoniae R6) (protein)
chain: MKASPHRPTKALIHLGAIRQNIQQMGAHIPQGTLKLAVVKANAYGHGAVAVAKAIQDDVDGFCVSNIDEAIELRQAGLSKPILILGVSEIEAVALAKEYDFTLTVAGLEWIQALLDKEVDLTGLTVHLKIDSGMGRIGFREASEVEQAQDLLQQHGVCVEGIFTHFATADEESDDYFNAQLERFKTILASMKEVPELVHASNSATTLWHVETIFNAVRMGDAMYGLNPSGAVLDLPYDLIPALTLESALVHVKTVPAGACMGYGATYQADSEQVIATVPIGYADGWTRDMQNFSVLVDGQACPIVGRVSMDQITIRLPKLYPLGTKVTLIGSNGDKEITATQVATYRVTINYEVVCLLSDRIPREYY
notes: full length, 367 residues, 39854 Da, homodimer (~80 kDa by gel filtration); pET17-alrSP (NdeI/BamHI) in E. coli BL21(DE3) pLysS; no tag mentioned
By Km is commonly meant the concentration of substrate that gives half-maximal velocity. For B1, the Km was determined as 2100 µM in data set [1] and 1920 µM in data set [2].

The values above are taken from article PMC1885262, “Purification and preliminary crystallization of alanine racemase from Streptococcus pneumoniae” (BMC Microbiology, 2007).
